Measurements reported in the RNAGym collection of RNA variant scans (doi:10.7554/elife.80360).

B1: CPEB3 Ribozyme (parent)
chain: GGGGGCCACAGCAGAAGCGUUCACGUCGCGGCCCCUGUCAGAUUCUGGUGAAUCUGCGAAUUCUGCUGU

Variants of: B1
Experiment: self-cleavage, relative activity (ratio to wild type); higher = more cleavage; co-transcriptional
GGGGCCCACAGCAGAAGCGUUCACGACGCGGCCCCUGUCAGAUUCUGGUGAAUCUGCGAAUUCUGCUGU showed a self-cleavage of 0.156. Work on GGGGCCCACAGCAGAAGCGUUCACGGCGCGGCCCCUGUCAGAUUCUGGUGAAUCUGCGAAUUCUGCUGU yielded a self-cleavage of 0.228. Variant GGGGCCCACAGCAGAAGCGUUCAUGUCGCGGCCCCUGUCAGAUUCUGGUGAAUCUGCGAAUUCUGCUGU has a self-cleavage of 0.112. With GGGGCCCACAGCAGAAGCGUUCAGGUCGCGGCCCCUGUCAGAUUCUGGUGAAUCUGCGAAUUCUGCUGU the self-cleavage was 0.0631. Variant GGGGCCCACAGCAGAAGCGUUCACGUCGCGGCCCCUGUCACAUUCUGGUGAAUCUGCGAAUUCUGCUGU has a self-cleavage of 0.188. Work on GGGGCCCACAGCAGAAGCGUUCACGUCGCGGCCCCUGUCAAAUUCUGGUGAAUCUGCGAAUUCUGCUGU yielded a self-cleavage of 0.194. With GGGGCCCACAGCAGAAGCGUUCACGUCGCGGCCCCUGUCAUAUUCUGGUGAAUCUGCGAAUUCUGCUGU the self-cleavage was 0.186. For GGGGCCCACAGCAGAAGCGUUCACCUCGCGGCCCCUGUCAGAUUCUGGUGAAUCUGCGAAUUCUGCUGU, the self-cleavage was 0.0981. Work on GGGGCCCACAGCAGAAGCGUUCACUUCGCGGCCCCUGUCAGAUUCUGGUGAAUCUGCGAAUUCUGCUGU yielded a self-cleavage of 0.0626. With GGGGCCCACAGCAGAAGCGUUCACGUCCCGGCCCCUGUCAGAUUCUGGUGAAUCUGCGAAUUCUGCUGU the self-cleavage was 0.0894. Work on GGGGCCCACAGCAGAAGCGUUCACGUCUCGGCCCCUGUCAGAUUCUGGUGAAUCUGCGAAUUCUGCUGU yielded a self-cleavage of 0.0856. In the case of GGGGCCCACAGCAGAAGCGUUCACGUCGCGGGCCCUGUCAGAUUCUGGUGAAUCUGCGAAUUCUGCUGU, the self-cleavage is reported as 0.968. GGGGCCCACAGCAGAAGCGUUCACGUUGCGGCCCCUGUCAGAUUCUGGUGAAUCUGCGAAUUCUGCUGU showed a self-cleavage of 0.138. Variant GGGGCCCACAGCAGAAGCGUUCACGUCGCGGCACCUGUCAGAUUCUGGUGAAUCUGCGAAUUCUGCUGU has a self-cleavage of 0.302. GGGGCCCACAGCAGAAGCGUUCACGUCGCGGCGCCUGUCAGAUUCUGGUGAAUCUGCGAAUUCUGCUGU gave a self-cleavage of 0.227. Variant GGGGCCCACAGCAGAAACGUUCACGUCGCGGCCCCUGUCAGAUUCUGGUGAAUCUGCGAAUUCUGCUGU has a self-cleavage of 0.0588. Work on GGGGCCCACAGCAGAACCGUUCACGUCGCGGCCCCUGUCAGAUUCUGGUGAAUCUGCGAAUUCUGCUGU yielded a self-cleavage of 0.0976. GGGGCCCACAGCAGAAGCGUUCACGUCGCGGCCCCUGUCAGAUUCUGAUGAAUCUGCGAAUUCUGCUGU showed a self-cleavage of 0.217. In the case of GGGGCCCACAGCAGAAGCGUUCACGUCGCAGCCCCUGUCAGAUUCUGGUGAAUCUGCGAAUUCUGCUGU, the self-cleavage is reported as 0.177. GGGGCCCACAGCAGAAGCGUUCACGUCGCUGCCCCUGUCAGAUUCUGGUGAAUCUGCGAAUUCUGCUGU showed a self-cleavage of 0.0983. GGGGCCCACAGCAGAAGCGUUCACGUCGCCGCCCCUGUCAGAUUCUGGUGAAUCUGCGAAUUCUGCUGU showed a self-cleavage of 0.124. GGGGCCCACAGCAGAAGCGUUCACGUCGCGGCCCCUGUCAGAUUCUCGUGAAUCUGCGAAUUCUGCUGU showed a self-cleavage of 0.246. Work on GGGGCCCACAGCAGAAGCGUUCACGUCGCGGCCCCUGUCAGAUUCUAGUGAAUCUGCGAAUUCUGCUGU yielded a self-cleavage of 0.201. With GGGGCCCACAGCAGAAGCGUUCACGUCGCGGCCCCUGUCAGAUUCUUGUGAAUCUGCGAAUUCUGCUGU the self-cleavage was 0.289. GGGGCCCAUAGCAGAAGCGUUCACGUCGCGGCCCCUGUCAGAUUCUGGUGAAUCUGCGAAUUCUGCUGU showed a self-cleavage of 0.412. GGGGCCCACAGCAGAAGCGGUCACGUCGCGGCCCCUGUCAGAUUCUGGUGAAUCUGCGAAUUCUGCUGU showed a self-cleavage of 0.0813. Variant GGGGCCCACAGCAGAAGAGUUCACGUCGCGGCCCCUGUCAGAUUCUGGUGAAUCUGCGAAUUCUGCUGU has a self-cleavage of 0.097. For GGGGCCCACAGCAGAAGUGUUCACGUCGCGGCCCCUGUCAGAUUCUGGUGAAUCUGCGAAUUCUGCUGU, the self-cleavage was 0.148. With GGGGCCCACAGCAGAAGGGUUCACGUCGCGGCCCCUGUCAGAUUCUGGUGAAUCUGCGAAUUCUGCUGU the self-cleavage was 0.12. Work on GGGGCCCACAGCAGAAGCGUUCACGUCGCGGCCCCUGUCAGAUUCUGGUGAAUCUGCGAAUUUUGCUGU yielded a self-cleavage of 0.207. Work on GGGGCCCACAGCAGAAGCGUUCACGUCGCGGCCCCUGUCAGAUUCUGGUGAAUCUGCGAAUUAUGCUGU yielded a self-cleavage of 0.119. Variant GGGGCCCACAGCAGAAGCGUUCACGUCGCGGCCCCUGUCAGAUUCUGGUGAAUCUGCGAAUUGUGCUGU has a self-cleavage of 0.109. Variant GGGGCCCACAGCAGAAGCGUUCACGUCGCGGCCCCUGUCAGAUUCUGGUGAAUCUACGAAUUCUGCUGU has a self-cleavage of 0.158. Work on GGGGCCCACAGAAGAAGCGUUCACGUCGCGGCCCCUGUCAGAUUCUGGUGAAUCUGCGAAUUCUGCUGU yielded a self-cleavage of 0.141. GGGGCCCACAGCAGAAGCGUUCACGUCGCGGCCCCUGGCAGAUUCUGGUGAAUCUGCGAAUUCUGCUGU showed a self-cleavage of 0.0921. GGGGCCCACAGCAGAAGCGUUCACGUCGCGGCCCCUGUUAGAUUCUGGUGAAUCUGCGAAUUCUGCUGU showed a self-cleavage of 0.184. For GGGGCCCACAGCAGAAGCGUUCACGUCGCGGCCCCUGUGAGAUUCUGGUGAAUCUGCGAAUUCUGCUGU, the self-cleavage was 0.199. In the case of GGGGCCCACAGCAGAAGCGUUCACGUCGCGGCCCCUGUAAGAUUCUGGUGAAUCUGCGAAUUCUGCUGU, the self-cleavage is reported as 0.134. With GGGGCCCACAGCAGAAGCGUUCACGUCGCGGCCCCUGUCAGAUUCUGGUAAAUCUGCGAAUUCUGCUGU the self-cleavage was 0.202. For GGGGCCCACAGCAGAAGCGUUCACGUCGCGGCCCCUGUCAGAUUCUGGUCAAUCUGCGAAUUCUGCUGU, the self-cleavage was 0.182. GGGGCCCACAGCAGAAGCGUUCACGUCGCGGCCCCUGUCAGACUCUGGUGAAUCUGCGAAUUCUGCUGU showed a self-cleavage of 0.173. GGGGCCCACAGCAGAAGCGUUCACGUCGCGGCCCCUGUCAGAGUCUGGUGAAUCUGCGAAUUCUGCUGU showed a self-cleavage of 0.219. Variant GGGGCCCACAGCAGAAGCGUUCACGUCGCGGCCCCUCUCAGAUUCUGGUGAAUCUGCGAAUUCUGCUGU has a self-cleavage of 0.103. In the case of GGGGCCCACAGCAGAAGCGUUCACGUCGCGGCCCCUAUCAGAUUCUGGUGAAUCUGCGAAUUCUGCUGU, the self-cleavage is reported as 0.119. For GGGGCCCACAGCAGAAGCGUUCACGUCGCGGCCCCUUUCAGAUUCUGGUGAAUCUGCGAAUUCUGCUGU, the self-cleavage was 0.179. Work on GGGGCCCACAGCAGAAGCGUUCACGUCGCGGCCCCGGUCAGAUUCUGGUGAAUCUGCGAAUUCUGCUGU yielded a self-cleavage of 0.458. Work on GGGGCCCACAGCAGAAGCGUUCACGUCGCGGCCCCAGUCAGAUUCUGGUGAAUCUGCGAAUUCUGCUGU yielded a self-cleavage of 0.0886. Work on GGGGCCCACAGCAGAAGCGUUCACGUCGCGGCCCCCGUCAGAUUCUGGUGAAUCUGCGAAUUCUGCUGU yielded a self-cleavage of 0.244. GGGGCCCACAGCAGAAGCGUUCACGUCGCGGCCCCUGUCAGAUUCUGGUGAAUGUGCGAAUUCUGCUGU showed a self-cleavage of 0.143. GGGGCCCACAGCAGAAGCGUUCACGUCGCGGCCCCUGUCAGAUUCUGGUGAAUUUGCGAAUUCUGCUGU gave a self-cleavage of 0.219. In the case of GGGGCCCACAGCAGAAGCGUUCACGUCGCGGCCCAUGUCAGAUUCUGGUGAAUCUGCGAAUUCUGCUGU, the self-cleavage is reported as 0.0866. In the case of GGGGCCCACAGCAGAAGCGUACACGUCGCGGCCCCUGUCAGAUUCUGGUGAAUCUGCGAAUUCUGCUGU, the self-cleavage is reported as 0.134. Variant GGGGCCCACAGCAGAAGCGUCCACGUCGCGGCCCCUGUCAGAUUCUGGUGAAUCUGCGAAUUCUGCUGU has a self-cleavage of 0.149. For GGGGCCCACAGCAGAAGCGUGCACGUCGCGGCCCCUGUCAGAUUCUGGUGAAUCUGCGAAUUCUGCUGU, the self-cleavage was 0.114. For GGGGCCCACAGCAGAAGCGUUCACGUCGCGGCCCCUGUCAGAUUCUGGUGAAUCUGGGAAUUCUGCUGU, the self-cleavage was 0.098. GGGGCCCACAGCAGAAGCGUUCACGUCGCGGCCCCUGUCAGAUUCUGGUGAAUCUGAGAAUUCUGCUGU gave a self-cleavage of 0.0507. GGGGCCCACAGCAGAAGCGUUCACGUCGCGUCCCCUGUCAGAUUCUGGUGAAUCUGCGAAUUCUGCUGU gave a self-cleavage of 0.143. GGGGCCCACAGCAGAAGCGUUCACGUCGAGGCCCCUGUCAGAUUCUGGUGAAUCUGCGAAUUCUGCUGU gave a self-cleavage of 0.144. In the case of GGGGCCCACAGCAGAAGCGUUCACGUCGUGGCCCCUGUCAGAUUCUGGUGAAUCUGCGAAUUCUGCUGU, the self-cleavage is reported as 0.133. Variant GGGGCCCACAGCAGAAGCGUUCACGUCGCGGCCCCUGUCAGAUUUUGGUGAAUCUGCGAAUUCUGCUGU has a self-cleavage of 0.266. With GGGGCCCACAGCAGAAGCGUUCACGUCGCGGCCCCUGUCAGAUUGUGGUGAAUCUGCGAAUUCUGCUGU the self-cleavage was 0.178. For GGGGCCCACAGCAGAAGCGUUCACGUCGCGGCCCCUGUCAGAUUCUGGUGAAUCUGCUAAUUCUGCUGU, the self-cleavage was 0.207. GGGGCCCACAGCAGAAGCGUUCACGUCGCGGCCCCUGUCAGAUUCUGGUGAAUCUGCGAAUUCUGCUCU showed a self-cleavage of 0.317. GGGGCCCACAGCAGAAGCGUUCACGUCGCGGCCCCUGUCAGAUUCUGGUGAAUCUGCGAAUUCUGCUAU showed a self-cleavage of 0.473. With GGGGCCCACAGCAGAAGCGUUCACGUCGCGGCCCCUGUCAGAUUCUGGUGAAUCUGCGAAUUCUGCUUU the self-cleavage was 0.483. Work on GGGGCCCACAGCAUAAGCGUUCACGUCGCGGCCCCUGUCAGAUUCUGGUGAAUCUGCGAAUUCUGCUGU yielded a self-cleavage of 0.109. In the case of GGGGCCCACAGCAGAAGCGUUCACGUCGCGGCCCCUGUCAGAUUCUGGUGAAUCUGCGAAUUCUCCUGU, the self-cleavage is reported as 0.106. With GGGGCCCACAGCAGAAGCGUUCACGUCGCGGCCCCUGUCAGAUUCUGGUGAAUCUGCGAAUUCUACUGU the self-cleavage was 0.158. Work on GGGGCCCACAGCAGAAGCGUUCACGUCGCGGCCCCUGUCAGAUUCUGGUGAAUCUGCGAAUUCUUCUGU yielded a self-cleavage of 0.0855. For GGGGCCCACAUCAGAAGCGUUCACGUCGCGGCCCCUGUCAGAUUCUGGUGAAUCUGCGAAUUCUGCUGU, the self-cleavage was 0.108. With GGGGCCCACAGCAGAAGCUUUCACGUCGCGGCCCCUGUCAGAUUCUGGUGAAUCUGCGAAUUCUGCUGU the self-cleavage was 0.121. GGGGCCCACAGCAGAAGCAUUCACGUCGCGGCCCCUGUCAGAUUCUGGUGAAUCUGCGAAUUCUGCUGU showed a self-cleavage of 0.126. With GGGGCCCACAGCAGAAGCGUUCACGUCGCGGCCCCUGUCAGAUUCUGGUGAAUCUGCGAAUUCUGUUGU the self-cleavage was 0.151. GGGGCCCACAGCAGAAGCGUUCACGUCGCGGCCUCUGUCAGAUUCUGGUGAAUCUGCGAAUUCUGCUGU showed a self-cleavage of 0.3. GGGGCCCACAGCAGAAGCGUUCACGUCGCGGCCGCUGUCAGAUUCUGGUGAAUCUGCGAAUUCUGCUGU showed a self-cleavage of 0.22. In the case of GGGGCCCACAGCAGAAGCGUUCACGUCGCGGCCACUGUCAGAUUCUGGUGAAUCUGCGAAUUCUGCUGU, the self-cleavage is reported as 0.268. In the case of GGGGCCCACAGCAGAAGCGUUUACGUCGCGGCCCCUGUCAGAUUCUGGUGAAUCUGCGAAUUCUGCUGU, the self-cleavage is reported as 0.0752. GGGGCCCACAGCAGAAGCGUUGACGUCGCGGCCCCUGUCAGAUUCUGGUGAAUCUGCGAAUUCUGCUGU showed a self-cleavage of 0.0735.
